Experimental data reported in patent US20160304584, “MAFB MUTANTS AND USES THEREOF” (INSERM (INSTITUT NATIONAL DE LA SANTÉ ET DE LA …, published 2016).

Experiments:
[1] = molecular target: MafB (wt) fragment 211-305 C298S, homodimer (Mus musculus, UniProt P54841 SEQ:211-305, C298S); assay: structure; 2.9 A crystal structure; 50 mM MgCl2 in complex buffer; conditions: chain copies: 2
Description: The C-terminal region of MafB from Mus musculus (residues 211-305, C298S) was purified as previously described (Textor et al., 2007). Homodimeric MafB₂ complexes were dialyzed overnight into 30 mM Tris-HCl (pH 7.3), 80 mM NaCl, 50 mM MgCl₂ and 3 mM β-mercaptoethanol at room temperature in the presence of an oligonucleotide encompassing the T-MARE-binding site (forward: […] (SEQ ID NO:3); reverse: […] (SEQ ID NO:4), METABION). The protein-DNA complex was further purified by size exclusion chromatography on a Superdex-75 (16/60) column (GE), equilibrated with the dialysis buffer. The pooled peak fractions corresponding to the (MafB)₂/T-MARE complex were analyzed by SDS-PAGE and native PAGE gels and concentrated to 5 mg/mL, using a centrifugal concentrator with a polyethersulfone membrane with a 10,000 MWCO (VIVASPIN, Sartorius Stedim Biotech). Crystallization drops of 400 nL volume, using a 1:1 protein/mother liquor ratio, were set up in 96-well sitting-drop plates and allowed to equilibrate at 19° C. Diffracting crystals grew in the presence of 0.1 M Na-citrate (pH 5.0), 15% [w/v] PEG-4000, 5% [v/v] PEG-400, and 0.1 M MgCl₂.

[2] = molecular target: MafB (E269R)/c-Fos heterodimer (UniProt P54841;P01101 P54841:211-305,P01101:138-200, MafB E269R); assay: EMSA; exclusive heterodimer even at residual c-Fos; conditions: label: 32P
Description: (§1) Double-stranded synthetic oligonucleotides corresponding to the T-MARE(a) ([…]) (SEQ ID NO:5), to T-MARE(beta) ([…]) (SEQ ID NO:6) or to T-MARE(y) ([…]) (SEQ ID NO:7) sites were incubated with Klenow fragment DNA polymerase in the presence of [α³²P][…] and purified on Qiaquick Spin Columns (Qiagen). Increasing amount (0.25 to 64 pmol) of recombinant c-Fos and recombinant protein (4 pmol) of MafB (wt) or MafB (E269R) and MafB (V277N) mutants were incubated with 0.05 ng of probe in 20 μL of binding reaction buffer (20 mM Tris-HCl (pH 7.5), 100 mM KCl, 0.1 mM EDTA, 5% glycerol, 0.1% Triton X-100, 0.02% BSA, […] poly d[I-C]) for 20 min. Complexes formed were resolved on a 6% polyacrylamide (acrylamide/bisacrylamide ratio, 29:1) non-denaturating gel (Bio-Rad) in 0.5% Tris-glycine. Gels were dried and autoradiographed at −80° C.

[3] = molecular target: MafB (V277N)/c-Fos heterodimer (UniProt P54841;P01101 P54841:211-305,P01101:138-200, MafB V277N); assay: EMSA; binding unchanged versus wt; conditions: label: 32P
Description: as §1

[4] = molecular target: T1, MafB (wt)/c-Fos heterodimer (UniProt P54841;P01101 P54841:211-305,P01101:138-200); assay: EMSA; strongly preferred over homodimer; conditions: label: 32P
Description: as §1

[5] = molecular target: T1, MafB (wt)/c-Fos heterodimer; assay: EMSA; no significant heterodimer detected; conditions: label: 32P
Description: as §1

MafB (V277N) homodimer = MafB (V277N) homodimer (UniProt P54841 SEQ:211-305, V277N); assay: EMSA; no enhanced site selection compared with wt; conditions: chain copies: 2; label: 32P
Description: as §1

MafB (wt) homodimer [6] = molecular target: T2, MafB (wt) homodimer (UniProt P54841 SEQ:211-305); assay: EMSA; only homodimer bound; conditions: chain copies: 2; label: 32P
Description: as §1

[7] = molecular target: MafB (E269R) full-length with c-Fos (UniProt P54841;P01101 P54841:1-323,P01101:1-380, MafB E269R); assay: cell_activity; luciferase, HEK293, with c-Fos
Description: HEK293 cells were grown in Dulbecco's modified eagle's medium supplemented with 10% fetal bovine serum in six-well plates to reach 60-80% confluence at the time of transfection. DNA was transfected by calcium phosphate precipitation procedure as previously described (Sieweke et al., 1996). pTK81 luciferase reporter constructs (200 ng) (Promega) containing three multimerized T-MARE(alpha) ([…] CA […]), T-MARE(beta) ([…] CA […]), or T-MARE (y) ([…] […]) were cotransfected with 200 ng of Rc/CMV (Invitrogen) constructs driving the expression of wt and mutant full-length MafB with or without 200 ng of Rc/CMV construct driving the expression of c-Fos or no transgene (vector control). Assays were performed in duplicate. The transfection efficiency was normalized by assaying for β-galactosidase activity from a cotransfected CVM-LacZ construct, and luciferase activity was analyzed as previously described (Sieweke et al., 1996). […] The transfection efficiency was normalized, by assaying for β-galactosidase activity from a cotransfected CVM-LacZ construct, and luciferase activity was analyzed using a dual-luciferase reporter assay system (Promega, Cat: E1910) according to the manufacturer's recommendations.

MafB (wt) homodimer [8] = molecular target: T2, MafB (wt) homodimer; assay: EMSA; comparable to heterodimer at equimolar c-Fos; favoured with excess MafB; conditions: chain copies: 2; label: 32P
Description: as §1

[9] = molecular target: T1, MafB (wt)/c-Fos heterodimer; assay: EMSA; comparable to homodimer at equimolar ratio; favoured with excess c-Fos; conditions: label: 32P
Description: as §1

T1 sequence (P54841 211-305, chain 1 of 2): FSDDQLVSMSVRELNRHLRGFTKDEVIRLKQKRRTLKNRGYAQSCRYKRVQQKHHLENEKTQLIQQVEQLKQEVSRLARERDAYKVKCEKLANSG
T1 sequence (P01101 138-200, chain 2 of 2): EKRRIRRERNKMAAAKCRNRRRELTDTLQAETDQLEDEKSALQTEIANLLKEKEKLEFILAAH
T2 sequence (P54841 211-305): as the sequence (P54841 211-305, chain 1 of 2) above
Sequence of MafB (E269R)/c-Fos heterodimer (P54841 211-305 E269R, chain 1 of 2): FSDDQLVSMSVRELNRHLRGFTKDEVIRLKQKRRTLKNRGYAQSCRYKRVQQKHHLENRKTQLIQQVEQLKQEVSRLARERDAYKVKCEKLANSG
Sequence of MafB (E269R)/c-Fos heterodimer (P01101 138-200, stated change not applied, chain 2 of 2): as the sequence (P01101 138-200, chain 2 of 2) above
Sequence of MafB (E269R) full-length with c-Fos (P54841 whole entry E269R, chain 1 of 2): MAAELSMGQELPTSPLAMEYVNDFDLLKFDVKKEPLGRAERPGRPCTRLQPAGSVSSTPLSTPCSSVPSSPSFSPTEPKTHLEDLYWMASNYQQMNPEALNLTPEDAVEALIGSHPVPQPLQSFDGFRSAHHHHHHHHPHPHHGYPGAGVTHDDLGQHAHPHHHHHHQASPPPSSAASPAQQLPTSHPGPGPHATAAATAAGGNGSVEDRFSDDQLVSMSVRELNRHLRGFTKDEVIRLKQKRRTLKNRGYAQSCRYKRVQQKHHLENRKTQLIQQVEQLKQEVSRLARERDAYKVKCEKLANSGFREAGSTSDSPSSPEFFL
Sequence of MafB (E269R) full-length with c-Fos (P01101 whole entry, stated change not applied, chain 2 of 2): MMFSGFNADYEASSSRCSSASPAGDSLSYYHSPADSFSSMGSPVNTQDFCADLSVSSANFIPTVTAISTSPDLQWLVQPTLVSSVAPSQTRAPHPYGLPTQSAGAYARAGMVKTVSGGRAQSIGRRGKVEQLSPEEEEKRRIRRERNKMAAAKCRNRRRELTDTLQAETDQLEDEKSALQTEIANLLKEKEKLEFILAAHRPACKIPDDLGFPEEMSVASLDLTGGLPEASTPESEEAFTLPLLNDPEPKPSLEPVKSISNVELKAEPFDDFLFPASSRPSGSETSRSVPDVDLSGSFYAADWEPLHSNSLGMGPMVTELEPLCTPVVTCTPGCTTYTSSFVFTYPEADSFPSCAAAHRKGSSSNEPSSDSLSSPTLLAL
Sequence of MafB (V277N) homodimer (P54841 211-305 V277N): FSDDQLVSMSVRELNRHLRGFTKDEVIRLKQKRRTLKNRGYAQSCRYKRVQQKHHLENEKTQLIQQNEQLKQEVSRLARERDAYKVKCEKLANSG
Sequence of MafB (V277N)/c-Fos heterodimer (P54841 211-305 V277N, chain 1 of 2): as the sequence (P54841 211-305 V277N) above
Sequence of MafB (V277N)/c-Fos heterodimer (P01101 138-200, stated change not applied, chain 2 of 2): as the sequence (P01101 138-200, chain 2 of 2) above
Sequence of MafB (wt) fragment 211-305 C298S, homodimer (P54841 211-305 C298S): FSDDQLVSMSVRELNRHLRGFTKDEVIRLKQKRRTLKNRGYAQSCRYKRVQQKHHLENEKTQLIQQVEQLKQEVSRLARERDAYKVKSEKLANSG

B1: T-MARE 20-bp (dsDNA)
DNA 1: TAATTGCTGACTCAGCAATT
DNA 2: TAATTGCTGAGTCAGCAATT
B1: binds [1].

B2: T-MARE(beta) (dsDNA)
DNA 1: TCGTCCCCTCCTATGAGTCAGCAATTCTC
DNA 2: GAGAATTGCTGACTCATAGGAGGGGACGA
B2: binds [2]; binds [3]; binds [4].

B3: T-MARE(gamma) (dsDNA)
DNA 1: TCGTCCCTTATGCCTACTAGGCAATTCTC
DNA 2: GAGAATTGCCTAGTAGGCATAAGGGACGA
B3: no binding [5]; binds (MafB (V277N) homodimer); binds (MafB (wt) homodimer [6]).

B4: T-MARE(beta) x3 reporter (dsDNA)
DNA 1: TCGACCTCCCCTCCTATGAGTCAGCAATTCTCTCGAGCTCCCCTCCTATGAGTCAGCAATTCTCTCGAGCTCCCCTCCTATGAGTCAGCAATTCTCGTCGACCC
DNA 2: GGGTCGACGAGAATTGCTGACTCATAGGAGGGGAGCTCGAGAGAATTGCTGACTCATAGGAGGGGAGCTCGAGAGAATTGCTGACTCATAGGAGGGGAGGTCGA
With B4 the activity [7] was 5 fold vs wt.

B5: T-MARE(alpha) (dsDNA)
DNA 1: TCGTCCCTTATGCTGACTCAGCAATTCTC
DNA 2: GAGAATTGCTGAGTCAGCATAAGGGACGA
B5: binds (MafB (wt) homodimer [8]); binds [9].
